This is an account of results in article PMC6456213, “LurR is a regulator of the central lactate oxidation pathway in sulfate-reducing Desulfovibrio species”.

Series [1] addresses T1, LurR (Desulfovibrio vulgaris Hildenborough) (UniProt Q726T3).
T1 sequence: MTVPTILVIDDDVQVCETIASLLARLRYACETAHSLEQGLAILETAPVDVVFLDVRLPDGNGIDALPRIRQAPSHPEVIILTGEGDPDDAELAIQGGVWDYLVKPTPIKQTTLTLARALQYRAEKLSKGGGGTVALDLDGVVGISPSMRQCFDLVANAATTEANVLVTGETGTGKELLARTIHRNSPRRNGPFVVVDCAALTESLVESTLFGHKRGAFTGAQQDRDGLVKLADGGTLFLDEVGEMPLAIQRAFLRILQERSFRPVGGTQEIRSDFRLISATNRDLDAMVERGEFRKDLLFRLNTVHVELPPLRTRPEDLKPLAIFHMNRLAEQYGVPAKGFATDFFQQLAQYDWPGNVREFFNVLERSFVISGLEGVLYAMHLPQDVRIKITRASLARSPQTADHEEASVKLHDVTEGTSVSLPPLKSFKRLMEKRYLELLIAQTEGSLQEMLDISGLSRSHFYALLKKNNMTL
Put plainly: EMSA. The conditions noted are these: 10 mM Tris-HCl pH 7.5, 50 mM KCl, 5 mM MgCl2, 1 ug/ml poly dI.dC, 100 fmol biotinylated DNA in 20 ul, room temperature, 20 min.

The target in series [2] is T2, PhoB (Desulfovibrio vulgaris Hildenborough) (UniProt Q72D47).
T2 sequence: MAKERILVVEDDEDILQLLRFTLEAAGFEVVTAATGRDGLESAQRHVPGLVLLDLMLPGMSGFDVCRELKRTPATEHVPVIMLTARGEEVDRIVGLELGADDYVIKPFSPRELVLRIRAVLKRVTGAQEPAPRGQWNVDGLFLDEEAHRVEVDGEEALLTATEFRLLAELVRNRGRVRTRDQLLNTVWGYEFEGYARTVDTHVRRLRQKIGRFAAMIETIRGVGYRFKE
Put plainly: EMSA. The conditions noted are these: 10 mM Tris-HCl pH 7.5, 50 mM KCl, 5 mM MgCl2, 1 ug/ml poly dI.dC, 100 fmol biotinylated DNA in 20 ul, room temperature, 20 min. For orientation: In EMSA bound probe runs differently from free probe, usually more slowly.

A further series concerns the target T3, LurR (Desulfovibrio vulgaris Hildenborough, UniProt Q726T3 1-474).
T3 sequence: T1 sequence
Put plainly: EMSA; 0.5-1 pmol LurR; 10 mM Tris-HCl pH 7.5, 50 mM KCl, 5 mM MgCl2, 1 ug/ml poly dI.dC, 100 fmol biotinylated DNA in 20 ul, room temperature, 20 min. The conditions noted are these: protein: recombinant; chain copies: 2; label: biotin on one strand.

Turning to “CGAGAAACGACAGCCGGAGGAAAAACCAAGGTTACAGCATAGTTACAGATAACACACCATTGGCACATTTCTTGTTAAACTTGCGGAGTTCGCGCTCTCCGCGCAACGGTCTCGGGCTCGCCCGCAAGCACCGTGAACTCCAGCCTCCGGCCCCCGGCGGCATGCCATTTTCACCACGCGCCCACCACAGGGCAGAAAAAGGAGATCGTAAATGGCCAAG (double strand) [por promoter substrate IV (220 bp)]”, the results for the binding entry in series [1] and in series [2] were “no binding” and “binds”, respectively.

With “GTCAGTAGGGTAACGCCACACGAAGTCCGCTTTTCAAGACACGCTACCACGCAACCCCATCCACGAGAAACGACAGCCGGAGGAAAAACCAAGGTTACAGCATAGTTACAGATAACACACCATTGGCACATTTCTTGTTAAACTTGCGGAGTTCGCGCTCTCCGCGCAACGGTCTCGGGCTCGCCCGCAAGCACCGTGAACTCCAGCCTCCGGCCCCCGGCGGCATGCCATTTTCACCACGCGCCCACCACAGGGCAGAAAAAGGAGATCGTAAATGGCCAAG (double strand) [por promoter substrate III (283 bp)]”, the binding entry in series [1] and in series [2] was “binds” throughout.

B1: por LurR motif mut oligo (dsDNA)
DNA 1: GCCACACGAACTGCGCTTTTCAATCAACGCTACCAC
DNA 2: GTGGTAGCGTTGATTGAAAAGCGCAGTTCGTGTGGC
As for B1, the binding result with LurR is listed as “no binding”.
